Data taken from US20220265856A1 (MODERNATX, published 2022).

T1: human propionyl-CoA carboxylase beta (PCCB), wild-type isoform 1
T1 chain: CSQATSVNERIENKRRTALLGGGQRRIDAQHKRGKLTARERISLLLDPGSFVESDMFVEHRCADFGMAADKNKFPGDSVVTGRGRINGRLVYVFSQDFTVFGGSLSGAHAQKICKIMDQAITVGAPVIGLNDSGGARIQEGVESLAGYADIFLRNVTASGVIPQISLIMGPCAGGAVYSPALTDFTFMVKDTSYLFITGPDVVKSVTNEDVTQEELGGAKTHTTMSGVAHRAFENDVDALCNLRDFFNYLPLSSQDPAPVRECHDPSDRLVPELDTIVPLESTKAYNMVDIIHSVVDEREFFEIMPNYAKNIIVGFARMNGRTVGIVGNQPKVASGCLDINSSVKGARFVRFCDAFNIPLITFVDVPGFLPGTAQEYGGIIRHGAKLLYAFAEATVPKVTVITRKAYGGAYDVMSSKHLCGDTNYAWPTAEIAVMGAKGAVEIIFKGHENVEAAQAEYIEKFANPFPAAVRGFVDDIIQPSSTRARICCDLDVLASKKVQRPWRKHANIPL

T2: human propionyl-CoA carboxylase alpha (PCCA), wild-type isoform 1 (human, UniProt P05165 53-728)
T2 construct: Made inside transfected cells or mouse liver from mRNA encoding the full-length precursor; also called hPCCA; propionyl-CoA carboxylase alpha subunit
T2 sequence: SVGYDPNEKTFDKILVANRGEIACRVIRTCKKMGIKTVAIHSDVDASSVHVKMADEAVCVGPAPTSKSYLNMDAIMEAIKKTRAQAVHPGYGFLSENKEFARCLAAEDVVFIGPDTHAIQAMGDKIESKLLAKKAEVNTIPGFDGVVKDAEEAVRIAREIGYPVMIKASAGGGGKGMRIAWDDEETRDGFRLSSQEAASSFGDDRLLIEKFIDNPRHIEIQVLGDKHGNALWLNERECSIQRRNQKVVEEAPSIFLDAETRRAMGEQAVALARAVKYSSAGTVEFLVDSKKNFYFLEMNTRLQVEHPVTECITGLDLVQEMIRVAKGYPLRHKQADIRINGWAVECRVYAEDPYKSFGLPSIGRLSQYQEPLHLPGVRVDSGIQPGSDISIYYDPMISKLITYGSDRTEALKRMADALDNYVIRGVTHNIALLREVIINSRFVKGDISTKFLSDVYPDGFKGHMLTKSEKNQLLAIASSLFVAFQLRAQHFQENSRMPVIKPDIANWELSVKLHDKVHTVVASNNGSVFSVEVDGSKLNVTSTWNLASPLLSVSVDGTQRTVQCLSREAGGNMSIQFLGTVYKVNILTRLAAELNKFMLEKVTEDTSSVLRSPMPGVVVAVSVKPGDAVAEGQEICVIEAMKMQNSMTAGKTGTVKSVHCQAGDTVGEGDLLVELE

B1: human propionyl-CoA carboxylase alpha (PCCA), wild-type isoform 1 (protein)
chain: T2 sequence
B2: human propionyl-CoA carboxylase beta (PCCB), wild-type isoform 1 (enzyme)
chain: T1 chain
notes: Made inside transfected cells or mouse liver from mRNA encoding the full-length precursor; also called hPCCB; propionyl-CoA carboxylase beta subunit

Legend:
[1] = molecular target: T1, human propionyl-CoA carboxylase beta …
[2] = molecular target: T2, human propionyl-CoA carboxylase alpha …; test: immunofluorescence co-localisation with mitochondria in GM371 PCCA-deficient patient fibroblasts, 24 h after co-transfection of PCCA_18 and PCCB_18 mRNAs
Method: The subcellular co-localization of PCCA and PCCB proteins was examined in GM371 PCCA-deficient patient fibroblasts (9,000 cells/well on a 96-well plate) 24 hours after transfection with a total of 25 ng of 1-methyl-pseudouridine modified mRNAs encoding human PCCA (PCCA_18; SEQ ID NO: 35) and PCCB (PCCB_18; SEQ ID NO: 46), or a luciferase control. Commercial anti-PCCA monoclonal antibody (Santa Cruz #sc-393527) and anti-PCCB polyclonal antibody (Novus #NBP1-85886) were used to detect mRNA-expressed PCCA and PCCB using immunofluorescence microscopy. Mitotracker Red was used to confirm the identity of mitochondria and DAPI was used to stain nuclei. Image analysis was performed on a Zeiss ELYRA imaging system. […] There was no PAAC or PCCB staining in negative control cells that were transfected with mRNA encoding luciferase.

Binder | PCC activity in GM371 PCCA-deficient patient fibroblasts at different PCCA:PCCB mRNA molar ratios, 24 h and 40 h [1] | PCC activity in GM1298 PCCB-deficient patient fibroblasts at different PCCA:PCCB mRNA molar ratios, 24 h [1] | PCC enzyme activity (radiometric assay, MicroBeta readout/ug protein) in PCCA- and PCCB-deficient patient fibroblasts: co-transfection of PCCA and PCCB mRNAs at 1:1 against either mRNA alone [1] | binding result [2]
B1 | a PCCA:PCCB molar ratio of 1:1 (A:B ratio of 1:1) increased PCC activity the greatest in PCCA-deficient patient fibroblasts | a PCCA:PCCB molar ratio of 1:1 (A:B ratio of 1:1) increased PCC activity the greatest in PCCB-deficient patient fibroblasts | 5-25 fold higher | 
B2 |  |  |  | binds
